Two molecules from publication PMC3102117, “L,L-Diaminopimelate Aminotransferase from Chlamydomonas reinhardtii: A Target for Algaecide Development” (PLoS ONE, 2011) can be followed below.

In data set [1] the target is L,L-diaminopimelate aminotransferase from Chlamydomonas reinhardtii (Chlamydomonas reinhardtii). Description: AUC; sedimentation velocity, 9.2 µM (0.45 mg/mL) Cr-DapL, 20 °C, 50 mM HEPES, 0.5 mM DTT, 1 mM EDTA, 50 mM NaCl pH 8.0, 45,000 rpm; c(s) and c(M) distributions in SEDFIT.
Substrate in data set [2]: N[C@@H](CCC(=O)O)C(=O)O
Put plainly: purified protein. The class given is biochemical, Chlamydomonas reinhardtii. Particulars: forward direction, amino donor, saturating THDPA generated in situ from meso-DAP by C. glutamicum Ddh, 100 mM HEPES-KOH pH 7.6.

Substrate in data set [3]: N[C@@H](CCC[C@H](N)C(=O)O)C(=O)O
Description: purified protein. As to conditions: reverse direction, amino donor, saturating 2-oxoglutarate, 0.3 mM NADPH, 50 mM NH4Cl, 100 mM HEPES-KOH pH 7.6, 30 °C. It is filed as biochemical, Chlamydomonas reinhardtii.

Substrate in data set [4]: O=C(O)C1=N[C@H](C(=O)O)CCC1
Description: purified protein. It is filed as biochemical, Chlamydomonas reinhardtii. Particulars: forward direction, co-substrate glutamate 5.0 mM, THDPA generated in situ from meso-DAP by C. glutamicum Ddh with NADP, 100 mM HEPES-KOH pH 7.6.

Substrate in data set [5]: O=C(O)CCC(=O)C(=O)O
Description: purified protein. It is filed as biochemical, Chlamydomonas reinhardtii. As to conditions: reverse direction, amino acceptor, saturating L,L-DAP, 0.3 mM NADPH, 50 mM NH4Cl, 100 mM HEPES-KOH pH 7.6, 30 °C.

A word on the stoichiometry N: it is the number of molecules, sites or subunits per partner or assembly. With “L,L-diaminopimelate aminotransferase from Chlamydomonas reinhardtii (enzyme)”, in data set [1], the stoichiometry N was 2.

B1: Cr-DapL (Chlamydomonas reinhardtii) (protein)
chain: MQLNVRSTASGARSSTRSRRMTAVVQAVAQRAGTIDVQRNENFGKLRAGYLFPEIARRRKAHQEKNPDAKIISLGIGDTTEPLPKYIADAMAKAAAGLATREGYSGYGAEQGQGALREAVASTFYGHAGRAADEIFISDGSKCDIARIQMMFGSKPTVAVQDPSYPVYVDTSVMMGMTGDHNGTGFDGIEYMVCNPDNHFFPDLSKAKRTDIIFFCSPNNPTGAAATRAQLTELVNFARKNGSILVYDAAYALYISNPDCPKTIYEIPGADEVAIETCSFSKYAGFTGVRLGWTVVPKALKYANGEPVHADWNRVMTTCFNGASNIVQAGGLACLQPEGLKEMNAMIKFYKENAQILKTTFTEMGFSVYGGDDAPYIWVGFPGKPSWDVFAEILERCNIVTTPGSGFGPAGEGFVRASAFGSRENILEAVRRFKEAYGKRN
notes: monomeric mass 48,830 Da; dimer; EC 2.6.1.83
One may read the Km as the substrate concentration at which the rate is half of its maximum. What is called kcat is the maximal rate divided by the concentration of active sites. What is called Vmax is the rate approached at saturating substrate. With B1, the Km in “purified protein [2]” was determined as 900 ± 400 µM; in “purified protein [3]”, 300 ± 20 µM; in the data set “purified protein [4]” it was 100 ± 10 µM; in “purified protein [5]”, 2200 ± 700 µM. Also, the catalytic constant (kcat) in the data set “purified protein [2]” stood at 1.1 s⁻¹; in “purified protein [3]” it was 19 s⁻¹; in “purified protein [4]”, 1.1 s⁻¹; in the data set “purified protein [5]”, 19.0 s⁻¹. For the same molecule, the Vmax in “purified protein [3]” came to 11.6 µmol/min/mg; in “purified protein [4]”, 0.68 µmol/min/mg.
